Our source for the BiFC fluorescence (Venus signal/mCherry signal) relative to VN-Hd3A with VC-SLAC1 values is paper PMC6536566.

In the assay the target is VC-OsSLAC1 (rice (Oryza sativa)). Briefly: split reporter (BiFC, NanoBiT); BiFC with Venus halves (VN, VC) co-expressed in rice protoplasts; confocal microscopy; ER-mCherry as internal control, Venus signal/mCherry signal.

B1: VN-SAPK10 (natural protein)
chain: MDRAALTVGPGMDMPIMHDGDRYELVRDIGSGNFGVARLMRSRADGQLVAVKYIERGDKIDENVQREIINHRSLRHPNIIRFKEVILTPTHLAIVMEYASGGELFERICNAGRFSEDEARFFFQQLISGVSYCHSMQVCHRDLKLENTLLDGSTAPRLKICDFGYSKSSVLHSQPKSTVGTPAYIAPEVLLKKEYDGKIADVWSCGVTLYVMLVGAYPFEDPDEPKNFRKTIQRILGVQYSIPDYVHISPECRDLIARIFVANPATRISIPEIRNHPWFLKNLPADLMDDSKMSSQYEEPEQPMQSMDEIMQILAEATIPAAGSGGINQFLNDGLDLDDDMEDLDSDPDLDVESSGEIVYAM
B1 had a BiFC fluorescence (Venus signal/mCherry signal) relative to VN-Hd3A with VC-SLAC1 of 3 fold.
